In patent US7078197 one finds fusion binding (percent bound) data, which are given here for 2 substances.

For the test, the target named is 35S-labeled mRNA-peptide fusion prepared from mRNA 1 crosslinked to linker B, encoding the Flag and Strep-Tag II epitope. Put plainly: precipitation of 35S-labeled fusion on affinity resin, wash, scintillation counting.

“Anti-Flag M2 Affinity Gel (Sigma, MO) (antibody)”: the fusion binding (percent bound) came out at 54%. The result for StrepTactin Sepharose (Genosys, Tex.) reads 62%.
